From paper PMC4706430, “In Vitro Mode of Action and Anti-thrombotic Activity of Boophilin, a Multifunctional Kunitz Protease Inhibitor from the Midgut of a Tick Vector of Babesiosis, Rhipicephalus microplus” (PLoS Neglected Tropical Diseases, 2016) come the findings set out here.

In assay [1] the target is T1, FXIa (human, UniProt P03951 19-387; P03951 388-625).
T1 construct: coagulation factor XIa heavy chain; coagulation factor XIa light (catalytic) chain; for the Enzyme Research Laboratories FXIa no species is printed; also called Factor XIa; source: bought: Enzyme Research Laboratories (reagents list); bought: Molecular Innovations (protease screen); copies: 2 + 2
The assay is described as follows: enzyme inhibition kinetics (chromogenic substrate hydrolysis); apparent Ki from Vs/Vo against Boophilin concentration (0-640 nM); FXIa (10 nM) pre-incubated 1 hour with Boophilin, then S2366 (250 μM); TBS-BSA pH 7.4. To be noted: both partners purified.

In assay [2] the target is kallikrein (human, UniProt P03952 20-638). The assay is described as follows: cell-based or functional assay.
Assay [3] deals with T2, α-thrombin (human, UniProt P00734 364-622). The assay is described as follows: cell-based or functional assay.
The target in assay [4] is T2, α-thrombin. The assay is described as follows: SPR; Biacore T100; Boophilin immobilised on CM5 by amine coupling (301.4 RU); thrombin (15.625-500 nM) injected 90 s, dissociation 180 s, 30 μL/minute, 25°C, HBS-P pH 7.4; global 1:1 Langmuir fit; α-thrombin, γ-thrombin and PPACK-thrombin also tested at 1 μM as analytes. To be noted: both partners purified. On the technique in general: In SPR one partner is held on a chip, and binding of the other changes the refractive index at the surface.

The target of assay [5] is T1, FXIa. The assay is described as follows: SPR; Biacore T100; FXIa immobilised on CM5 by amine coupling (1280.4 RU); Boophilin (31.25-500 nM) injected 120 s, dissociation 600 s, 30 μL/minute, 25°C, HBS-P pH 7.4; global 1:1 Langmuir fit. The conditions noted are these: both partners purified.
In assay [6] the target is T2, α-thrombin. The assay is described as follows: enzyme inhibition kinetics (chromogenic substrate hydrolysis); Lineweaver-Burk plots and re-plot of the slope against Boophilin concentration; Boophilin (0-1280 nM) with S2238 or S2366 (125-750 μM), then thrombin (0.2 nM) or FXIa (0.5 nM); TBS-BSA pH 7.4. To be noted: both partners purified.
Assay [7] deals with T1, FXIa. Described as above. The conditions noted are these: both partners purified.

T1 sequence (P03951 19-387, chain 1 of 2): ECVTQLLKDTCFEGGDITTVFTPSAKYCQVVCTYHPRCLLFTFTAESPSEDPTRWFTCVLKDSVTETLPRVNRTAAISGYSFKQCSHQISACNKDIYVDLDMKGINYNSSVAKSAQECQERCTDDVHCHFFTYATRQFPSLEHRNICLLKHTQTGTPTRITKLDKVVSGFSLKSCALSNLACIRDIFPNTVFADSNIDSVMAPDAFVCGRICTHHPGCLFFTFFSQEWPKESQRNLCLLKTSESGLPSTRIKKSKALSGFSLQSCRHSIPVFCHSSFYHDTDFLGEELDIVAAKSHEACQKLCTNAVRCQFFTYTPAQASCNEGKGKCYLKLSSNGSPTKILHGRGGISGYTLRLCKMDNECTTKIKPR
T1 sequence (P03951 388-625, chain 2 of 2): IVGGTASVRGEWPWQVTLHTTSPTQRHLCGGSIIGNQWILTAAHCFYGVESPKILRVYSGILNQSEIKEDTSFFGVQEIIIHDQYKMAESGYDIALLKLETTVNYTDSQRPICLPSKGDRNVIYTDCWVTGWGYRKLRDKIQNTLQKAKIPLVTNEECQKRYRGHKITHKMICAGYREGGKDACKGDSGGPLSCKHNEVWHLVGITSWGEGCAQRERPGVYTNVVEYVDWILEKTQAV
kallikrein, sequence (P03952 20-638): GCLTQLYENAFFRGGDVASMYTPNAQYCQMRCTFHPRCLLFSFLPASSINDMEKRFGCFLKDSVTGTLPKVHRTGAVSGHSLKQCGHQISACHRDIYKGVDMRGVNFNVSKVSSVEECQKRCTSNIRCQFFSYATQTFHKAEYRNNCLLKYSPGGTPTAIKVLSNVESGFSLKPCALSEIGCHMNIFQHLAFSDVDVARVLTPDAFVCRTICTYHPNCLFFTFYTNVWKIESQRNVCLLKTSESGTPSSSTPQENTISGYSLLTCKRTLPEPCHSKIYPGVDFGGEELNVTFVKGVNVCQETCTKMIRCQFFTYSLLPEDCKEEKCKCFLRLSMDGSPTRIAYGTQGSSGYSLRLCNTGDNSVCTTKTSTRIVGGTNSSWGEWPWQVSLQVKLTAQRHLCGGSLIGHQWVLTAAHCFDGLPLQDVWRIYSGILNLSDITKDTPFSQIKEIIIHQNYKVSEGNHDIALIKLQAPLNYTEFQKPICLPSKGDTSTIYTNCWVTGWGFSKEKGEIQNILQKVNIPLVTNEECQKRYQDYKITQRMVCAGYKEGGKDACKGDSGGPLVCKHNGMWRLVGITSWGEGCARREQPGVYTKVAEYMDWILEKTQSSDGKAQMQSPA

B1: Boophilin (natural protein)
chain: QRNGFCRLPADEGICKALIPRFYFNTETGKCTMFSYGGCGGNENNFETIEDCQKACGAPERVSDFEGADFKTGCEPAADSGSCAGQLERWFYNVRSGECETFVYGGCGGNDNNYESEEECELVCKNM
modifications: N-terminus blocked (Edman degradation)
Take B1: in assay [1], the Ki is ~82 nM. The “IC50 of the amidolytic activity of kallikrein (2 nM) on S2302, Boophilin 0-3200 nM, Vs/Vo (Fig 3G)” value in assay [2] was found to be 919000 nM. Moreover, in assay [3], the “IC50 of residual amidolytic activity (S-2238) of clot-bound thrombin (Fig 2H)” value is ~1000 nM and the “IC50 of thrombin-mediated fibrin formation (thrombin 200 nM, fibrinogen 2 mg/mL; absorbance at 600 nm) (Fig 2G)” value is ~1000 nM. Further, in assay [4], the dissociation constant Kd (as a rule, the equilibrium constant for the complex coming apart) was 116 nM; the koff (usually the first-order rate constant of dissociation) is 0.36 s⁻¹; the kon (commonly the second-order rate constant of association) was determined as 3e+06 M⁻¹ s⁻¹. The Kd in assay [5] is ~125 nM. The same molecule showed a Ki in assay [6] of 101 nM. In addition, the Ki in assay [7] worked out at 115 nM.
